B1: WalK-LgBIT (native WalK) [S. aureus] / WalR-SmBIT (native WalR) [S. aureus] (parent)
chain 1: MARKVVVVDDEKPIADILEFNLKKEGYDVYCAYDGNDAVDLIYEEEPDIVLLDIMLPGRDGMEVCREVRKKYEMPIIMLTAKDSEIDKVLGLELGADDYVTKPFSTRELIARVKANLRRHYSQPAQDTGNVTNEITIKDIVIYPDAYSIKKRGEDIELTHREFELFHYLSKHMGQVMTREHLLQTVWGYDYFGDVRTVDVTIRRLREKIEDDPSHPEYIVTRRGVGYFLQQHE
chain 2: MKWLKQLQSLHTKLVIVYVLLIIIGMQIIGLYFTNNLEKELLDNFKKNITQYAKQLEISIEKVYDEKGSVNAQKDIQNLLSEYANRQEIGEIRFIDKDQIIIATTKQSNRSLINQKANDSSVQKALSLGQSNDHLILKDYGGGKDRVWVYNIPVKVDKKVIGNIYIESKINDVYNQLNNINQIFIVGTAISLLITVILGFFIARTITKPITDMRNQTVEMSRGNYTQRVKIYGNDEIGELALAFNNLSKRVQEAQANTESEKRRLDSVITHMSDGIIATDRRGRIRIVNDMALKMLGMAKEDIIGYYMLSVLSLEDEFKLEEIQENNDSFLLDLNEEEGLIARVNFSTIVQETGFVTGYIAVLHDVTEQQQVERERREFVANVSHELRTPLTSMNSYIEALEEGAWKDEELAPQFLSVTREETERMIRLVNDLLQLSKMDNESDQINKEIIDFNMFINKIINRHEMSAKDTTFIRDIPKKTIFTEFDPDKMTQVFDNVITNAMKYSRGDKRVEFHVKQNPLYNRMTIRIKDNGIGIPINKVDKIFDRFYRVDKARTRKMGGTGLGLAISKEIVEAHNGRIWANSVEGQGTSIFITLPCEVIEDGDWDE

Variants of: B1
Test: split luciferase (SmBIT/LgBIT) interaction assay in S. aureus
Settings: with WalR-SmBIT (native WalR) [S. aureus]; maximum of the RLU curve, mutant peak at about 125 min, Wt peak at about 120 min; growth in LB in NRS384 Wt; sub-panel labelled T389A; parent: 8e+03; read off a plot

Q: For chain 2 T389A, which response is on record?
A: 60000 RLU

Same assay, conditions: with WalR-SmBIT (native WalR) [S. aureus]; maximum of the RLU curve, mutant peak at about 165 min, Wt peak at about 120 min; growth in LB in NRS384 Wt; sub-panel labelled G223D; parent: 8e+03; read off a plot

Q: chain 2 G223D was tested. Which response did it give?
A: 19000 RLU

Same assay, conditions: with WalK-LgBIT (native WalK) [S. aureus]; maximum of the RLU curve, mutant peak at about 170 min, Wt peak at about 120 min; growth in LB in NRS384 Wt; sub-panel labelled D53A/T101A; parent: 8e+03; read off a plot

Q: For chain 1 MARKVVVVDDEKPIADILEFNLKKEGYDVYCAYDGNDAVDLIYEEEPDIVLLAIMLPGRDGMEVCREVRKKYEMPIIMLTAKDSEIDKVLGLELGADDYVAKPFSTRELIARVKANLRRHYSQPAQDTGNVTNEITIKDIVIYPDAYSIKKRGEDIELTHREFELFHYLSKHMGQVMTREHLLQTVWGYDYFGDVRTVDVTIRRLREKIEDDPSHPEYIVTRRGVGYFLQQHE [chain 1 D53A T101A], which response is on record?
A: 8000 RLU

Same assay, conditions: with WalR-SmBIT (native WalR) [S. aureus]; maximum of the RLU curve, mutant peak at about 170 min, Wt peak at about 120 min; growth in LB in NRS384 Wt; sub-panel labelled H385A; parent: 8e+03; read off a plot

Q: chain 2 H385A was tested. Which response did it give?
A: 20000 RLU

Same assay, conditions: with WalK-LgBIT (native WalK) [S. aureus]; maximum of the RLU curve, mutant peak at about 140 min, Wt peak at about 125 min; growth in LB in NRS384 Wt; sub-panel labelled D53A; parent: 8.5e+03; read off a plot

Q: chain 1 MARKVVVVDDEKPIADILEFNLKKEGYDVYCAYDGNDAVDLIYEEEPDIVLLAIMLPGRDGMEVCREVRKKYEMPIIMLTAKDSEIDKVLGLELGADDYVTKPFSTRELIARVKANLRRHYSQPAQDTGNVTNEITIKDIVIYPDAYSIKKRGEDIELTHREFELFHYLSKHMGQVMTREHLLQTVWGYDYFGDVRTVDVTIRRLREKIEDDPSHPEYIVTRRGVGYFLQQHE [chain 1 D53A] was tested. Which response did it give?
A: 17000 RLU

Same assay, conditions: with WalK-LgBIT (native WalK) [S. aureus]; maximum of the RLU curve, mutant peak at about 140 min, Wt peak at about 125 min; growth in LB in NRS384 Wt; sub-panel labelled D53E; parent: 8e+03; read off a plot

Q: With chain 1 MARKVVVVDDEKPIADILEFNLKKEGYDVYCAYDGNDAVDLIYEEEPDIVLLEIMLPGRDGMEVCREVRKKYEMPIIMLTAKDSEIDKVLGLELGADDYVTKPFSTRELIARVKANLRRHYSQPAQDTGNVTNEITIKDIVIYPDAYSIKKRGEDIELTHREFELFHYLSKHMGQVMTREHLLQTVWGYDYFGDVRTVDVTIRRLREKIEDDPSHPEYIVTRRGVGYFLQQHE [chain 1 D53E] as the variant, how does the response read?
A: 150000 RLU

Same assay, conditions: with WalR-SmBIT (native WalR) [S. aureus]; maximum of the RLU curve, mutant peak at about 110 min, Wt peak at about 130 min; growth in LB in NRS384 Wt; sub-panel labelled Y32C; parent: 1.8e+04; read off a plot

Q: How did the response turn out when chain 2 Y32C was run?
A: 55000 RLU

From PMC10746227
